# Results published in the supplement of paper PMC10126150.
# ± gives the standard deviation of the averaged measurements.
# System: ATP
# Assay: switch fluorescence ratio, 500 uM ATP over buffer (Cy3 cluster intensity, sum of 5 cycles each) (fold (ratio)); higher = stronger signal-on switching upon ATP binding; sequences stand for … in TCGTCGGCAGCGTCAGATGTGTATAAGAGACAGTTTTTTTTTTTTTTTTTTTTTTTTT…TC
# Conditions: aptamer strand: ATP DNA aptamer (quencher-CACCTGGGGGAGTATTGCGGAGGAAGG + anchor), 100 nM annealed; ATP concentration: 500 uM
# In short: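 Switching-strand clusters labelled with Cy3 on a modified Illumina MiSeq flow-cell were annealed to 100 nM quencher-labelled ATP aptamer, imaged in selection buffer, and re-imaged after 15 min with 500 uM ATP at 22 °C. This was done over five cycles with NaOH stripping and re-annealing in between. The fluorescence ratio is summed target-cycle over summed buffer-cycle Cy3 intensity per cluster, averaged per switch-domain sequence, excluding clusters outside 100-1000 RFU.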
# 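Also: ATP exposure 15 min at 22 °C before imaging.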
row,Sequence,switch fluorescence ratio
1,TATGGCGCAT,0.993 ± 0.043
2,TATGGCTGTG,1.02 ± 0.06
3,TATGGGAAGC,1.03 ± 0.025
4,TATGGGCGTT,1 ± 0.011
5,TATGGGGATG,1 ± 0.024
6,TATGGGGGGA,1.02 ± 0.046
7,TATGGGGTCA,0.979 ± 0.018
8,TATGGTCAGT,0.968 ± 0.047
9,TATGGTTCGC,0.997 ± 0.055
10,TATGGTTTAA,0.975 ± 0.042
11,TATGGTTTGG,0.987 ± 0.028
12,TATGGTTTTC,1.01 ± 0.084
13,TATGTACGAT,1.05 ± 0.059
14,TATGTACTGT,1.09 ± 0.03
15,TATGTATTCT,1 ± 0.017
16,TATGTCAAG,1.02 ± 0.016
17,TATGTCAAGC,0.96 ± 0.038
18,TATGTCACAA,1.03 ± 0.014
19,TATGTCCGCT,1.05 ± 0.058
20,TATGTCTTAT,0.983 ± 0.027
21,TATGTGAGGA,0.989 ± 0.025
22,TATGTGATCT,0.9762 ± 0.0052
23,TATGTGGGCC,0.97 ± 0.041
24,TATGTTAAAG,0.996 ± 0.017
25,TATGTTAGGC,1.018 ± 0.01

row,Sequence,switch fluorescence ratio
1,TATGTTAGTT,1.01 ± 0.019
2,TATGTTTCGG,0.98 ± 0.011
3,TATTAAGTGC,0.955 ± 0.039
4,TATTAATGCT,1.028 ± 0.0052
5,TATTAATTCG,1.01 ± 0.032
6,TATTAGAATC,0.994 ± 0.026
7,TATTAGTGAA,1.01 ± 0.013
8,TATTAGTGCT,0.977 ± 0.033
9,TATTAGTTGC,1 ± 0.034
10,TATTATGAAT,0.999 ± 0.0024
11,TATTATGGAG,0.988 ± 0.021
12,TATTATTTCA,0.991 ± 0.024
13,TATTCACATT,0.994 ± 0.024
14,TATTCACGGG,1.0859 ± 0.00034
15,TATTCACTTG,1.04 ± 0.025
16,TATTCAGATA,0.9773 ± 0.008
17,TATTCAGCTA,1.07 ± 0.099
18,TATTCATTTG,1.027 ± 0.0068
19,TATTCCAATA,0.995 ± 0.03
20,TATTCGATTT,1.032 ± 0.0016
21,TATTCGGTTT,0.9889 ± 0.0048
22,TATTCGTTTT,0.989 ± 0.011
23,TATTCTAAAT,1.01 ± 0.016
24,TATTCTAGAG,0.989 ± 0.044
25,TATTGAGGGT,0.981 ± 0.034

row,Sequence,switch fluorescence ratio
1,TATTGCGGCC,1.02 ± 0.026
2,TATTGCTGCT,0.983 ± 0.032
3,TATTGGAGGG,0.974 ± 0.019
4,TATTGGCTTC,0.992 ± 0.018
5,TATTGGGAAA,1.06 ± 0.045
6,TATTGGGATA,1.01 ± 0.027
7,TATTGGGCAG,1.01 ± 0.023
8,TATTGGGCAT,0.985 ± 0.018
9,TATTGGGGA,0.958 ± 0.011
10,TATTGGGTAA,1.11 ± 0.14
11,TATTGGGTGA,0.99228 ± 0.00097
12,TATTGGGTGT,1.034 ± 0.0014
13,TATTGTACTC,1.03 ± 0.018
14,TATTGTAGGG,0.97 ± 0.013
15,TATTGTATGA,1.029 ± 0.0049
16,TATTGTCAGA,1.01 ± 0.019
17,TATTGTCCTT,1.019 ± 0.0056
18,TATTTAAGGT,1 ± 0.02
19,TATTTACGCT,1.05 ± 0.025
20,TATTTACTCG,1.05 ± 0.073
21,TATTTAGAAG,1.02 ± 0.054
22,TATTTAGGAG,0.999 ± 0.021
23,TATTTAGGCG,0.99 ± 0.064
24,TATTTAGGTA,1.022 ± 0.0031
25,TATTTAGGTG,1.11 ± 0.018

row,Sequence,switch fluorescence ratio
1,TATTTATAGT,1.02 ± 0.013
2,TATTTATCTT,0.989 ± 0.021
3,TATTTATGGG,0.978 ± 0.023
4,TATTTCTGAT,0.988 ± 0.016
5,TATTTCTTT,0.99 ± 0.026
6,TATTTGAGCT,1.03 ± 0.037
7,TATTTGGATA,1.05 ± 0.1
8,TATTTGGCTA,0.983 ± 0.045
9,TATTTGGGCG,1.053 ± 0.0059
10,TATTTGTACG,1.018 ± 0.0046
11,TATTTGTAGT,1.01 ± 0.039
12,TATTTGTCGG,1.0172 ± 0.00047
13,TATTTGTTAG,0.997 ± 0.031
14,TATTTTACTA,1.01 ± 0.032
15,TATTTTAGAG,0.966 ± 0.018
16,TATTTTAGGA,0.9743 ± 0.003
17,TATTTTGCGC,1.02 ± 0.026
18,TATTTTGGCG,0.986 ± 0.025
19,TATTTTTCGC,0.967 ± 0.015
20,TATTTTTCTC,0.983 ± 0.034
21,TATTTTTGGT,0.986 ± 0.021
22,TATTTTTTCG,0.987 ± 0.027
23,TATTTTTTGG,1.02 ± 0.033
24,TCAAAAAATT,1.02 ± 0.037
25,TCAAACCGCA,1.91 ± 0.16

row,Sequence,switch fluorescence ratio
1,TCAAACGAC,1.08 ± 0.011
2,TCAAAGGGCG,0.99 ± 0.049
3,TCAAAGGTAC,1.04 ± 0.0092
4,TCAAAGGTGT,1.22 ± 0.14
5,TCAAATAGGC,1.016 ± 0.01
6,TCAAATCGGT,1.03 ± 0.042
7,TCAACCCTTA,1.03 ± 0.038
8,TCAACGATAT,1.07 ± 0.075
9,TCAACTATTT,0.972 ± 0.031
10,TCAAGAGCTG,1.08 ± 0.072
11,TCAAGATGTG,0.99 ± 0.036
12,TCAAGATTGG,0.986 ± 0.023
13,TCAAGCGGGG,1.06 ± 0.09
14,TCAAGCTTTT,1.01 ± 0.017
15,TCAAGGGAAA,1 ± 0.058
16,TCAAGGGGAA,1 ± 0.019
17,TCAAGGTCCT,1.127 ± 0.0091
18,TCAATACGTT,1.09 ± 0.016
19,TCAATCATAT,0.982 ± 0.033
20,TCAATCGCTT,1.09 ± 0.026
21,TCAATCGGAA,1.06 ± 0.014
22,TCAATCTGTG,1.01 ± 0.066
23,TCAATGAATA,0.986 ± 0.02
24,TCAATGGTAT,1.17 ± 0.28
25,TCAATGGTGG,1.01 ± 0.028

row,Sequence,switch fluorescence ratio
1,TCAATGTGGT,1.016 ± 0.008
2,TCAATGTTTT,0.9846 ± 0.0031
3,TCAATTAGGC,1.05 ± 0.027
4,TCACACGGCG,1.13 ± 0.18
5,TCACACGTCG,1.02 ± 0.013
6,TCACAGATGG,1.02 ± 0.036
7,TCACAGTCTA,1.04 ± 0.058
8,TCACCAGGGG,1.76 ± 0.72
9,TCACCGAGGC,1.15 ± 0.07
10,TCACCTTGTT,1.03 ± 0.037
11,TCACGAGGCT,1.038 ± 0.0097
12,TCACGATTGG,1.02 ± 0.02
13,TCACGCCGGG,1.04 ± 0.019
14,TCACGGATGT,1.04 ± 0.012
15,TCACGGCTGG,0.971 ± 0.029
16,TCACGGGAAT,1.02 ± 0.055
17,TCACGGGGGT,1.17 ± 0.23
18,TCACGTTATG,1.11 ± 0.026
19,TCACTAGATC,0.998 ± 0.021
20,TCACTGGGTG,1.23 ± 0.035
21,TCACTGTTGT,0.993 ± 0.032
22,TCACTTATAA,1.02 ± 0.018
23,TCACTTATGG,1.03 ± 0.033
24,TCAGAAAGGG,1.021 ± 0.0059
25,TCAGAAGCGG,1.3 ± 0.1

row,Sequence,switch fluorescence ratio
1,TCAGAAGGCG,0.981 ± 0.015
2,TCAGAAGGGT,0.994 ± 0.03
3,TCAGAATCTA,1 ± 0.015
4,TCAGACATCG,1.01 ± 0.035
5,TCAGACTAGA,1.028 ± 0.0045
6,TCAGATGGGG,1.03 ± 0.021
7,TCAGATTAGT,0.968 ± 0.016
8,TCAGCATGTA,1.04 ± 0.019
9,TCAGCCGGGA,1.08 ± 0.024
10,TCAGCCGTTT,1.05 ± 0.054
11,TCAGCTCCGT,1.08 ± 0.025
12,TCAGGAAAAG,0.989 ± 0.019
13,TCAGGAAAGG,1.003 ± 0.0027
14,TCAGGCGGGC,1.015 ± 0.0058
15,TCAGGCGTTG,0.971 ± 0.027
16,TCAGGCTGGG,1.02 ± 0.016
17,TCAGGGCTAA,1.02 ± 0.062
18,TCAGGGGATC,1.01 ± 0.017
19,TCAGGGGCGA,1.041 ± 0.0078
20,TCAGGGGCGG,1.04 ± 0.096
21,TCAGGGGGGG,1.02 ± 0.022
22,TCAGGGGGTT,1.05 ± 0.037
23,TCAGGGGTCT,0.994 ± 0.011
24,TCAGGGGTTG,1.09 ± 0.17
25,TCAGGGTGCC,1.017 ± 0.0094

row,Sequence,switch fluorescence ratio
1,TCAGGTACAT,1.07 ± 0.014
2,TCAGGTCGCA,0.9894 ± 0.0054
3,TCAGGTTTGT,1.28 ± 0.34
4,TCAGGTTTTT,1.13 ± 0.22
5,TCAGTAACGC,1.05 ± 0.013
6,TCAGTAGATC,1.02 ± 0.044
7,TCAGTGGGTT,0.9968 ± 0.0089
8,TCAGTGTCCG,0.966 ± 0.038
9,TCAGTTGTAC,1.08 ± 0.011
10,TCAGTTGTCA,0.981 ± 0.017
11,TCAGTTTATG,0.961 ± 0.011
12,TCATAAAAGC,0.99 ± 0.027
13,TCATAATAGC,0.977 ± 0.028
14,TCATAATTGG,1.005 ± 0.0045
15,TCATACTTAA,1.04 ± 0.1
16,TCATAGATTT,0.988 ± 0.013
17,TCATAGCGGT,1.095 ± 0.0014
18,TCATAGGTGG,1 ± 0.034
19,TCATAGTTCA,1.03 ± 0.012
20,TCATATGAGT,1 ± 0.051
21,TCATATTAAG,0.9911 ± 0.0028
22,TCATCCCTAT,1.1 ± 0.15
23,TCATCGCTTT,1.08 ± 0.021
24,TCATCTTGGC,1.02 ± 0.096
25,TCATGAATTT,0.9885 ± 0.0089
